# T1: C-reactive protein (CRP) (UniProt P02741 19-224)
# T1 sequence: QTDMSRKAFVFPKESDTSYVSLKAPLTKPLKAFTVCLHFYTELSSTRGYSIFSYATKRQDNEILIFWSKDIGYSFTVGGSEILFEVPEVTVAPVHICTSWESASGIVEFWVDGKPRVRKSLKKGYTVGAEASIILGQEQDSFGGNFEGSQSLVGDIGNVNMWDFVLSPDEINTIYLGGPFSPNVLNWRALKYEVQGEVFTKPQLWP
# B1: CRP aptamer (44 nt) (ssDNA)
# DNA: GCCTGTAAGGTGGTCGGTGTGGCGAGTGTGTTAGGAGAGATTGC
# modifications: 5' HO-(CH2)6-S-S-(CH2)6 thiol linker (TCEP reduced), immobilized on gold with MCH backfill
# Molecular target: T1, C-reactive protein (CRP)
# Test: electrochemical aptasensor (CV, EIS); aptamer/MCH on gold thin-film electrode; ferro-/ferricyanide; CRP 0.02-0.9 ng/mL; Rct 1.78 to 2.8 kOhm; LOD 6.5 pg/mL (not a Kd); ferro-/ferricyanide redox couple; buffer, salt, pH and temperature not given in the held text (aptamer immobilization at 2-4 C)
# Conditions: chain copies: 5
binder,measurement,value
B1,binding result,binds
